Here are results for 125 sequences from the supplement of paper PMC9112550, “Optimization of the antimicrobial peptide Bac7 by deep mutational scanning” (BMC Biology, 2022).
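Also: peptides expressed intracellularly from a pBAD plasmid library in pooled LB shake-flask culture, induced with 0.3% L-arabinose, DNA abundance read by NGS, three biological replicates, DESeq2 with apeglm shrinkage.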

The data set deals with Escherichia coli TOP10. The data set can be described thus: shrunken log2 fold change of peptide-encoding DNA abundance (4.5 h post-induction vs induction); higher = less antimicrobial activity (less host growth inhibition). As to conditions: time post-induction: 4.5 h; library: site-saturation at positions 5, 18, 19, 20.
With RRIRYRPPRLPRPRPRPMFCPRP, the “shrunken log2 fold change” value is -0.297.

As to RRIRTRPPRLPRPRPRPDCHPRP, the “shrunken log2 fold change” value is -0.0374.

Regarding RRIRKRPPRLPRPRPRPDKNPRP, the “shrunken log2 fold change” value is 0.159.

With RRIRERPPRLPRPRPRPNRPPRP, the “shrunken log2 fold change” value is -0.123.

With RRIRCRPPRLPRPRPRPDDPPRP, the “shrunken log2 fold change” value stood at 0.0647.

Take RRIRMRPPRLPRPRPRPKWMPRP: the “shrunken log2 fold change” value was found to be 0.21.

For RRIRFRPPRLPRPRPRPTLMPRP, the “shrunken log2 fold change” value was 0.0425.

For RRIRERPPRLPRPRPRPLILPRP, the “shrunken log2 fold change” value was -0.574.

Regarding RRIRLRPPRLPRPRPRPNWTPRP, the “shrunken log2 fold change” value was -0.084.

On to RRIRKRPPRLPRPRPRPYTDPRP, for which the “shrunken log2 fold change” value was -0.0224.

Turning to RRIRPRPPRLPRPRPRPFGHPRP, the “shrunken log2 fold change” value was -0.0335.

Turning to RRIRNRPPRLPRPRPRPSTYPRP, the “shrunken log2 fold change” value was -0.318.

For RRIRQRPPRLPRPRPRPMPPPRP, the “shrunken log2 fold change” value is 0.517.

On to RRIRWRPPRLPRPRPRPHWGPRP, for which the “shrunken log2 fold change” value was found to be 0.171.

RRIRARPPRLPRPRPRPGETPRP: the “shrunken log2 fold change” value was 0.238.

Regarding RRIRNRPPRLPRPRPRPMYRPRP, the “shrunken log2 fold change” value was -0.473.

As for RRIRLRPPRLPRPRPRPTQHPRP, the “shrunken log2 fold change” value amounted to 0.218.

On to RRIRWRPPRLPRPRPRPPLWPRP, for which the “shrunken log2 fold change” value was determined as 0.558.

Turning to RRIRYRPPRLPRPRPRPLHDPRP, the “shrunken log2 fold change” value was -0.74.

On to RRIRNRPPRLPRPRPRPGECPRP, for which the “shrunken log2 fold change” value worked out at 0.266.

For RRIRMRPPRLPRPRPRPGWNPRP, the “shrunken log2 fold change” value is 0.226.

As for RRIRFRPPRLPRPRPRPRTFPRP, the “shrunken log2 fold change” value was -0.179.

Regarding RRIRVRPPRLPRPRPRPRYHPRP, the “shrunken log2 fold change” value was -0.36.

As for RRIRTRPPRLPRPRPRPEIHPRP, the “shrunken log2 fold change” value is -0.0341.

RRIRCRPPRLPRPRPRPATCPRP: the “shrunken log2 fold change” value was -0.0745.

As for RRIRNRPPRLPRPRPRPFWIPRP, the “shrunken log2 fold change” value was 0.0948.

With RRIRSRPPRLPRPRPRPWSTPRP, the “shrunken log2 fold change” value was -0.696.

Consider RRIRERPPRLPRPRPRPQAFPRP, for which the “shrunken log2 fold change” value is -0.017.

On to RRIRYRPPRLPRPRPRPKWMPRP, for which the “shrunken log2 fold change” value is -0.27.

For the sequence RRIRFRPPRLPRPRPRPKSWPRP, the “shrunken log2 fold change” value stood at 0.199.

Take RRIRGRPPRLPRPRPRPKFNPRP: the “shrunken log2 fold change” value stood at 0.353.

On to RRIRFRPPRLPRPRPRPWLCPRP, for which the “shrunken log2 fold change” value is -0.173.

For the sequence RRIRPRPPRLPRPRPRPVHDPRP, the “shrunken log2 fold change” value is -0.115.

For the sequence RRIRTRPPRLPRPRPRPNASPRP, the “shrunken log2 fold change” value is -0.0378.

Consider RRIRQRPPRLPRPRPRPDFEPRP, for which the “shrunken log2 fold change” value came to 0.0209.

For the sequence RRIRRRPPRLPRPRPRPYPNPRP, the “shrunken log2 fold change” value is -0.0882.

On to RRIRFRPPRLPRPRPRPAETPRP, for which the “shrunken log2 fold change” value turned out to be 0.0238.

On to RRIRIRPPRLPRPRPRPYDSPRP, for which the “shrunken log2 fold change” value was -0.423.

As for RRIRCRPPRLPRPRPRPMVEPRP, the “shrunken log2 fold change” value was 0.237.

Take RRIRLRPPRLPRPRPRPWHQPRP: the “shrunken log2 fold change” value is 0.0225.

With RRIRKRPPRLPRPRPRPRPGPRP, the “shrunken log2 fold change” value was found to be 0.721.

For RRIRERPPRLPRPRPRPHETPRP, the “shrunken log2 fold change” value was -0.0135.

For RRIRVRPPRLPRPRPRPPSGPRP, the “shrunken log2 fold change” value was 0.208.

For the sequence RRIRSRPPRLPRPRPRPREPPRP, the “shrunken log2 fold change” value came out at 0.284.

Consider RRIRDRPPRLPRPRPRPQHSPRP, for which the “shrunken log2 fold change” value was -0.312.

For RRIRARPPRLPRPRPRPTLLPRP, the “shrunken log2 fold change” value is 0.286.

For RRIRTRPPRLPRPRPRPANIPRP, the “shrunken log2 fold change” value is -0.439.

Turning to RRIRNRPPRLPRPRPRPEEDPRP, the “shrunken log2 fold change” value was found to be 0.659.

Consider RRIRHRPPRLPRPRPRPHEMPRP, for which the “shrunken log2 fold change” value was -0.257.

As for RRIRSRPPRLPRPRPRPREQPRP, the “shrunken log2 fold change” value was 0.796.

As for RRIRSRPPRLPRPRPRPYESPRP, the “shrunken log2 fold change” value was -0.26.

Take RRIRGRPPRLPRPRPRPPKIPRP: the “shrunken log2 fold change” value is 0.835.

Regarding RRIRKRPPRLPRPRPRPLKDPRP, the “shrunken log2 fold change” value is -0.22.

For the sequence RRIRHRPPRLPRPRPRPTKGPRP, the “shrunken log2 fold change” value is -0.14.

As to RRIRPRPPRLPRPRPRPHPNPRP, the “shrunken log2 fold change” value amounted to 0.00254.

Regarding RRIRHRPPRLPRPRPRPWCEPRP, the “shrunken log2 fold change” value was found to be 0.0456.

On to RRIRQRPPRLPRPRPRPEKWPRP, for which the “shrunken log2 fold change” value was -0.191.

In the case of RRIRSRPPRLPRPRPRPVTEPRP, the “shrunken log2 fold change” value is -0.0851.

Regarding RRIRYRPPRLPRPRPRPRVNPRP, the “shrunken log2 fold change” value stood at 0.00364.

With RRIRERPPRLPRPRPRPHAGPRP, the “shrunken log2 fold change” value turned out to be 0.0727.

With RRIRFRPPRLPRPRPRPFYQPRP, the “shrunken log2 fold change” value is -0.537.

On to RRIRARPPRLPRPRPRPYRVPRP, for which the “shrunken log2 fold change” value is -0.211.

RRIRIRPPRLPRPRPRPCVMPRP: the “shrunken log2 fold change” value was -0.106.

On to RRIRNRPPRLPRPRPRPWHIPRP, for which the “shrunken log2 fold change” value is -0.325.

In the case of RRIRERPPRLPRPRPRPDLFPRP, the “shrunken log2 fold change” value turned out to be 0.462.

Regarding RRIRFRPPRLPRPRPRPSGDPRP, the “shrunken log2 fold change” value is -0.202.

In the case of RRIRIRPPRLPRPRPRPFSGPRP, the “shrunken log2 fold change” value is -0.241.

In the case of RRIRVRPPRLPRPRPRPIYQPRP, the “shrunken log2 fold change” value is -0.27.

Consider RRIRKRPPRLPRPRPRPYGDPRP, for which the “shrunken log2 fold change” value was -0.224.

For the sequence RRIRWRPPRLPRPRPRPVDNPRP, the “shrunken log2 fold change” value was -0.018.

As to RRIRPRPPRLPRPRPRPITTPRP, the “shrunken log2 fold change” value is -0.139.

With RRIRHRPPRLPRPRPRPRCMPRP, the “shrunken log2 fold change” value was -0.153.

Turning to RRIRKRPPRLPRPRPRPFIPPRP, the “shrunken log2 fold change” value is -0.543.

For the sequence RRIRMRPPRLPRPRPRPAHVPRP, the “shrunken log2 fold change” value was 0.176.

In the case of RRIRHRPPRLPRPRPRPWYYPRP, the “shrunken log2 fold change” value was -1.47.

For the sequence RRIRCRPPRLPRPRPRPIDSPRP, the “shrunken log2 fold change” value is -0.197.

Consider RRIRPRPPRLPRPRPRPIYCPRP, for which the “shrunken log2 fold change” value was -0.102.

As to RRIRCRPPRLPRPRPRPSNQPRP, the “shrunken log2 fold change” value is -0.414.

For the sequence RRIRKRPPRLPRPRPRPMWIPRP, the “shrunken log2 fold change” value was -0.0247.

On to RRIRPRPPRLPRPRPRPTAPPRP, for which the “shrunken log2 fold change” value turned out to be 0.528.

For RRIRRRPPRLPRPRPRPQWNPRP, the “shrunken log2 fold change” value is -0.153.

In the case of RRIRTRPPRLPRPRPRPYHTPRP, the “shrunken log2 fold change” value is -0.723.

On to RRIRRRPPRLPRPRPRPDSKPRP, for which the “shrunken log2 fold change” value is -0.0649.

In the case of RRIRLRPPRLPRPRPRPFCPPRP, the “shrunken log2 fold change” value was -0.355.

RRIRHRPPRLPRPRPRPQQLPRP: the “shrunken log2 fold change” value came out at 0.044.

Consider RRIRERPPRLPRPRPRPQMSPRP, for which the “shrunken log2 fold change” value is -0.114.

Consider RRIRGRPPRLPRPRPRPACNPRP, for which the “shrunken log2 fold change” value turned out to be 0.415.

Take RRIRYRPPRLPRPRPRPPFGPRP: the “shrunken log2 fold change” value is -0.386.

As for RRIRIRPPRLPRPRPRPAVKPRP, the “shrunken log2 fold change” value was -0.0893.

RRIRTRPPRLPRPRPRPPRGPRP: the “shrunken log2 fold change” value amounted to 0.607.

As for RRIRWRPPRLPRPRPRPQLFPRP, the “shrunken log2 fold change” value is 0.0645.

In the case of RRIRYRPPRLPRPRPRPDYFPRP, the “shrunken log2 fold change” value was -0.22.

For RRIRQRPPRLPRPRPRPTDVPRP, the “shrunken log2 fold change” value is -0.194.

Consider RRIRSRPPRLPRPRPRPRIQPRP, for which the “shrunken log2 fold change” value was -0.00704.

On to RRIRIRPPRLPRPRPRPCMEPRP, for which the “shrunken log2 fold change” value is -0.799.

In the case of RRIRNRPPRLPRPRPRPPDYPRP, the “shrunken log2 fold change” value was -0.077.

For RRIRPRPPRLPRPRPRPSGRPRP, the “shrunken log2 fold change” value is 0.0933.

RRIRFRPPRLPRPRPRPKYEPRP: the “shrunken log2 fold change” value is -0.063.

With RRIRMRPPRLPRPRPRPMTFPRP, the “shrunken log2 fold change” value is -0.512.

RRIRMRPPRLPRPRPRPFFRPRP: the “shrunken log2 fold change” value is 0.406.

In the case of RRIRMRPPRLPRPRPRPRMVPRP, the “shrunken log2 fold change” value came out at 0.125.

Regarding RRIRFRPPRLPRPRPRPQCVPRP, the “shrunken log2 fold change” value was -0.276.

As to RRIRQRPPRLPRPRPRPETDPRP, the “shrunken log2 fold change” value was -0.167.

Turning to RRIRGRPPRLPRPRPRPKFPPRP, the “shrunken log2 fold change” value was determined as 0.251.

For the sequence RRIRYRPPRLPRPRPRPVDSPRP, the “shrunken log2 fold change” value came out at 0.0413.

Regarding RRIRNRPPRLPRPRPRPCLLPRP, the “shrunken log2 fold change” value is -0.414.

For RRIRGRPPRLPRPRPRPAHAPRP, the “shrunken log2 fold change” value came to 1.06.

As to RRIRPRPPRLPRPRPRPEWEPRP, the “shrunken log2 fold change” value was found to be 0.304.

As for RRIRFRPPRLPRPRPRPEHTPRP, the “shrunken log2 fold change” value was -0.213.

With RRIRDRPPRLPRPRPRPQNFPRP, the “shrunken log2 fold change” value is -0.707.

For RRIRCRPPRLPRPRPRPTCTPRP, the “shrunken log2 fold change” value is -0.2.

As for RRIRSRPPRLPRPRPRPANYPRP, the “shrunken log2 fold change” value is -0.43.

For the sequence RRIRHRPPRLPRPRPRPEHNPRP, the “shrunken log2 fold change” value was -0.0734.

Take RRIRLRPPRLPRPRPRPDQPPRP: the “shrunken log2 fold change” value is -0.129.

As for RRIRMRPPRLPRPRPRPICYPRP, the “shrunken log2 fold change” value is -0.119.

For the sequence RRIRYRPPRLPRPRPRPLRMPRP, the “shrunken log2 fold change” value stood at 0.0288.

In the case of RRIRCRPPRLPRPRPRPEWLPRP, the “shrunken log2 fold change” value turned out to be 0.479.

As to RRIRKRPPRLPRPRPRPELRPRP, the “shrunken log2 fold change” value is 1.12.

For RRIRSRPPRLPRPRPRPRLGPRP, the “shrunken log2 fold change” value was 0.468.

As for RRIRERPPRLPRPRPRPVNFPRP, the “shrunken log2 fold change” value was -0.0265.

Consider RRIRARPPRLPRPRPRPPVIPRP, for which the “shrunken log2 fold change” value worked out at 0.0687.

For the sequence RRIRSRPPRLPRPRPRPQQDPRP, the “shrunken log2 fold change” value was -0.164.

As to RRIRVRPPRLPRPRPRPDREPRP, the “shrunken log2 fold change” value turned out to be 0.0132.

As to RRIRFRPPRLPRPRPRPSGIPRP, the “shrunken log2 fold change” value was -0.287.

Consider RRIRHRPPRLPRPRPRPYRDPRP, for which the “shrunken log2 fold change” value is -0.0135.
